Biological target: SARS-CoV-2 spike glycoprotein (S), wild type (SARS-CoV-2 strain Wuhan-Hu-1)
Assay: native gel or EMSA

SARS-CoV-2 spike glycoprotein (S), wild type (natural protein)
stoichiometry N: 3

— article doi:10.1101/2021.10.07.463402
